Target: Recombinant human VISTA Fc Chimera (human (homo sapiens))
Experiment: functional ELISA: rhVISTA coated at 2 µg/mL, biotin-labeled rhVSIG3, streptavidin-HRP
Protocol: Following blocking of the wells with 1% BSA, varying amounts of rhVSIG3 labeled with biotin was added. Biotin label associated with the plate due to the rhVSIG3—rhVISTA interaction was detected with streptavidin-HRP.

Chain of Recombinant human VISTA Fc Chimera (human (homo sapiens)) (chain, as listed by the source mutant limits assumed): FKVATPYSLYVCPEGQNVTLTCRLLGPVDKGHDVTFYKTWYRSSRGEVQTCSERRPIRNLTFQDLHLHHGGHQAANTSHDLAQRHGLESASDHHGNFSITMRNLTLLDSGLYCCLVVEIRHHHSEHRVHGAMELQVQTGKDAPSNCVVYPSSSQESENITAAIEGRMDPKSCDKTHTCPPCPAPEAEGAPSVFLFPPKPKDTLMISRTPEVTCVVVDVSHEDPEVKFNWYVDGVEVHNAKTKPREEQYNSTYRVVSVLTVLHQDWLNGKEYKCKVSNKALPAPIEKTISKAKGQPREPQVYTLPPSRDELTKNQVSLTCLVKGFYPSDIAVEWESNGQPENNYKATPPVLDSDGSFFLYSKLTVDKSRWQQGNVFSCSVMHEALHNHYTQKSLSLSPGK

EC50: ~0.25 µg/mL
B1: Recombinant human VSIG3 Fc Chimera (Fc fusion)
chain: LEVSESPGSIQVARGQTAVLPCTFTTSAALINLNVIWMVTPLSNANQPEQVILYQGGQMFDGAPRFHGRVGFTGTMPATNVSIFINNTQLSDTGTYQCLVNNLPDIGGRNIGVTGLTVLVPPSAPHCQIQGSQDIGSDVILLCSSEEGIPRPTYLWEKLDNTLKLPPTATQDQVQGTVTIRNISALSSGLYQCVASNAIGTSTCLLDLQVISPQPRNIGLIAG

Reference: US11649285B2, “Identification of VSIG3/VISTA as a novel immune checkpoint and use thereof for immunotherapy” (BIO-TECHNE CORPORATION, dated 2023)
